{
  "source": "the nanobody polyreactivity screen of Harvey et al. (2022)",
  "data": [
    {"assay": "yeast display, Sf9 membrane polyspecificity reagent, FACS + sequencing; frameworks hold sequencing errors", "procedure,_shortened": "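Polyreactivity labels are assigned by the sorting gate from which each nanobody was recovered. The gates were low and high (top ~1%), set on anti-HA fluorescence for expression and streptavidin fluorescence for reagent binding. Before sorting, galactose-induced (36–48 hours) yeast display cells were stained for 1 hour at 4 °C with 10% biotinylated, detergent-solubilized Sf9 membrane reagent.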", "values": [
      {"sequence": "QVQLVESGGGLVQAGGSLRLSCAASGSILGQYTMGWYRQAPGKERELVAGISSGGSTNYADSVKGRFTISRDNAKNTVYLQMNSLKPEDTAVYYCNKDGAFHWVGSDPVYLFEYWGQGTQVTVSS", "polyreactivity (PSR sort gate)": "low polyreactivity"},
      {"sequence": "QVQLVESGGGLVQAGGSLRLSCAASGSILGSNVMGWYRQAPGKERELVAAITSGDSTNYADSVKGRFTISRDNAKNTVYLQMNSLKPEDTAVYYCAKPYSVAPAAVLNWYLGYEYWGQGTQVTVSS", "polyreactivity (PSR sort gate)": "low polyreactivity"},
      {"sequence": "QVQLVESGGGLVQAGGSLRLSCAASGSILGYYAMGWYRQEPGKERELVAAISGRGGSTYYADSVKGRFTISRDNAKNSVYLHMNSLKPEDTAVYYCAVVWGSYYWGQGGGEYWGQGTQVTVSS", "polyreactivity (PSR sort gate)": "high polyreactivity"},
      {"sequence": "QVQLVESGGGLVQAGGSLRLSCAASGSILHLYAMGWYRQAPGKERELVARINSGGTTNYADSVKGRFTISRDNAKNTVYLQMNSLKPEDTAVYYCAARFTPYITSDVGHYDYWGQGTQVTVSS", "polyreactivity (PSR sort gate)": "low polyreactivity"},
      {"sequence": "QVQLVESGGGLVQAGGSLRLSCAASGSILKFNAMGWNRQAPGKERELVAAITRGTNTYYADSVKGRFTISRDNAKNTVYLQMNTLKPEDTAVYYCAARLPYNAIGYYYWGQGTQVTVSS", "polyreactivity (PSR sort gate)": "low polyreactivity"},
      {"sequence": "QVQLVESGGGLVQAGGSLRLSCAASGSILKFNAMGWYRQAPGKERELVAAITRGTNTYYADSVKGRFTISRDNANNTFFLQMNSLKPEDTAVYYCAARLPYNAIGYYYWGQGTQVTVSS", "polyreactivity (PSR sort gate)": "low polyreactivity"},
      {"sequence": "QVQLVESGGGLVQAGGSLRLSCAASGSILLRNAMGWYRQAPGKERELVAAISRDGGSTYADSVKGRFTISRDNAKNTVYLQMNSLKPEDTAVYYCAKRSYWYDYWGQGTQVTVSS", "polyreactivity (PSR sort gate)": "high polyreactivity"},
      {"sequence": "QVQLVESGGGLVQAGGSLRLSCAASGSILLRYAMGWYRQAPGKERELVAAISYDGGGTYYADSVKGRFTISRDNAKNTVYLQMNSLKPEDTAVYYCAADGYSSSGTAYDYWGQGTQVTVSS", "polyreactivity (PSR sort gate)": "low polyreactivity"},
      {"sequence": "QVQLVESGGGLVQAGGSLRLSCAASGSILLYYVMGWYRQAPGKERELVAGISSSGRTYYADSVKGRFTISRDNAKNTVYLQMNSLKPEDTAVYYSAKKYWRGDVRVGYWGQGTQVTVSS", "polyreactivity (PSR sort gate)": "high polyreactivity"},
      {"sequence": "QVQLVESGGGLVQAGGSLRLSCAASGSILPGNAMGWYRQAPGKEREFVAAISKSGGRTNYADSVKGRFTISRDNAKNTVYLQMNSLKPEDTAVYYCAARRSTGYGKSNLYNYWGQGTQVTVSS", "polyreactivity (PSR sort gate)": "high polyreactivity"},
      {"sequence": "QVQLVESGGGLVQAGGSLRLSCAASGSILPYYAMGWYRQAQGKERELLATITDGTDTYYADSVKGRFTISRDNAKNTVYLPMNSLKPEDTAVYYCNADGYVYYLHEDYWGQGTQVTVSS", "polyreactivity (PSR sort gate)": "low polyreactivity"},
      {"sequence": "QVQLVESGGGLVQAGGSLRLSCAASGSILQHYAMGWYRQAPGKERELVASISWTGGSTYYADSVKGRFTISRDNAKNTVYLQMNSLKPEDTAVYYCAARRYRYYSRGSWGQGTQVTVSS", "polyreactivity (PSR sort gate)": "high polyreactivity"},
      {"sequence": "QVQLVESGGGLVQAGGSLRLSCAASGSILQPIYAMGWYRQAPGKERELVAAISASGGSTYYADSVKGRFTISRDNAKNTVYLQMNSLKPEDTAVYYCNKVGYYASVLGYDYWGQGTQVTVSS", "polyreactivity (PSR sort gate)": "high polyreactivity"},
      {"sequence": "QVQLVESGGGLVQAGGSLRLSCAASGSILRKYAMGWYRQAPGKERELVAAISWSGGSTYYADSVKGRFTISRDNAKNTVYVQMNSLKPEDTAVYYCNRDGLSRPYYYWGQGTQVTVSS", "polyreactivity (PSR sort gate)": "high polyreactivity"},
      {"sequence": "QVQLVESGGGLVQAGGSLRLSCAASGSILRSNAMGWYRQAPGKERELVAAITFNGGSTYADSVKGRFTISRDNAKNTVYLQMNSLKPEDTAVYYCATGDGPSLFDYWGQGTQVTVSS", "polyreactivity (PSR sort gate)": "low polyreactivity"},
      {"sequence": "QVQLVESGGGLVQAGGSLRLSCAASGSILRYYAKGWYRQAPGKERELVASINWSGGSTYYADSVKGRFTISRDNAKNTVYLQMNSLKPEDTAVYYCAARRRSAEYNYWGQGTQVTVSS", "polyreactivity (PSR sort gate)": "high polyreactivity"},
      {"sequence": "QVQLVESGGGLVQAGGSLRLSCAASGSILSAYDMGLYRKAPGKDRELVAAIHSSGGSTYYADSVKGRFTISRDNAKNTVYLQMNSLKPEDTAVYYCAATSLAGYYQFDYWGQGTQVTVSS", "polyreactivity (PSR sort gate)": "low polyreactivity"},
      {"sequence": "QVQLVESGGGLVQAGGSLRLSCAASGSILSFNAMGWDRQAPGNERELVAAISRGGSTNYADSVKGRFTISRDNAKNTVYLQMNSLKPEDTAVYYCAAVQYRYSTRWARRAYDYWGQGTQVTVSS", "polyreactivity (PSR sort gate)": "high polyreactivity"},
      {"sequence": "QVQLVESGGGLVQAGGSLRLSCAASGSILSPYAMGWYRQAPGKERELVAAISRSGDRTYYADSVKGRFTISRDNAKNTVYLQMNSLKPEDTAVYYCAAEYSWPWDYYYWGQGTQVTVSS", "polyreactivity (PSR sort gate)": "high polyreactivity"},
      {"sequence": "QVQLVESGGGLVQAGGSLRLSCAASGSILTDNAMGWYRQAPGKERELVASITGSGGSTYYADSVKGRFTISRDNAKNSVYLQMNSLKRVDTAVYYCAASYRLRYGYWGQGTQVTVSS", "polyreactivity (PSR sort gate)": "high polyreactivity"},
      {"sequence": "QVQLVESGGGLVQAGGSLRLSCAASGSILTENAMGWYRQAPGKERELVAAISRSGGRTYYADSVKGRFTISRDNAKNTVYLQMNSLKPEDTAVYYCAAEYWTVGYYYSLESDYWGQGTQVTVSS", "polyreactivity (PSR sort gate)": "low polyreactivity"},
      {"sequence": "QVQLVESGGGLVQAGGSLRLSCAASGSILTFYAMGWYRQAPGKERELVAAITWRGGSTYYAYSVKGRFTISRDNAKNTVYLQMNSLKPEDTAVYYCAAEQVGYYLNWRDYWGQGTQVTVSS", "polyreactivity (PSR sort gate)": "high polyreactivity"},
      {"sequence": "QVQLVESGGGLVQAGGSLRLSCAASGSILTPNAMGWYRQAPGKERELVATISKGGGRTYYADSVKGRFTISRDNAKNTVYLQMNSLKPEDTAVYYCAADARRNSPGNYWGQGTQVTVSS", "polyreactivity (PSR sort gate)": "high polyreactivity"},
      {"sequence": "QVQLVESGGGLVQAGGSLRLSCAASGSILTPYAMGWYRQAPGKERELVAAISWGDGSTYYADSVKGRFTISRDNAKNTVYLQMNSLKPEDTAVYYCAAVSYYGVDQYRITVYTYEYWGQGTQVTVSS", "polyreactivity (PSR sort gate)": "low polyreactivity"},
      {"sequence": "QVQLVESGGGLVQAGGSLRLSCAASGSILTYYAMGWYRQAPGKERELVAAINNIGGSTYYADSVKGRFTISRDNAKNTVYLQMNSLKPEDTAVYYCAKYYAWPYDYWGQGTQVTVSS", "polyreactivity (PSR sort gate)": "low polyreactivity"},
      {"sequence": "QVQLVESGGGLVQAGGSLRLSCAASGSILVNAIGWYRQAPGKEREFVAAISSGGSTKYADSVKGRFTMSRDNATNTDYLLMNSLKPEDTEVYYCAARVVTSRLSGGTTHPFILYYWGQGTQVTVSS", "polyreactivity (PSR sort gate)": "high polyreactivity"},
      {"sequence": "QVQLVESGGGLVQAGGSLRLSCAASGSILVPNAMGWYRQAPGKERELVAGISANGGSTYYADSVKGRFTISRDNANNTVYLQMNSLKPEDTAVYYCNARLYWDWYGDDYWVQGTQVTVSS", "polyreactivity (PSR sort gate)": "low polyreactivity"},
      {"sequence": "QVQLVESGGGLVQAGGSLRLSCAASGSILWYNGLGWYRQAPGKEMELVAAITSGGSTNYADSVKGRFTISRDNAKNTVYLQMNSLKQEDTAVYYCATRHSKYGYEYDYWGQGTQVTVSS", "polyreactivity (PSR sort gate)": "low polyreactivity"},
      {"sequence": "QVQLVESGGGLVQAGGSLRLSCAASGSILWYYAMGWDRQAPGKERELVATITSGGSTYYADSVKGRFTISRDNAKNSVYLQMNSLKPEDTAVYYCNADLAVDEYDYWGQGTQVTVSS", "polyreactivity (PSR sort gate)": "low polyreactivity"},
      {"sequence": "QVQLVESGGGLVQAGGSLRLSCAASGSILYGNAMGWYRQAPGKERELVAAISWRGGRTYYADSVKGRFTISRDNAKNTVYLQMNSLKPEDTAVYYCAAQIGLVSGRDYWGQGTQVTVSS", "polyreactivity (PSR sort gate)": "high polyreactivity"},
      {"sequence": "QVQLVESGGGLVQAGGSLRLSCAASGSILYGNDMGWYRQAPGKERELVANITSSDSTYYADSVKGRFTISRDNAKNTVYLQMNSLKPEDTAVYYCASDDVGWGYYVYSYPYDYWGQGTQVNVSS", "polyreactivity (PSR sort gate)": "low polyreactivity"},
      {"sequence": "QVQLVESGGGLVQAGGSLRLSCAASGSILYLNAMGWYRQAPGKERELVASISSSGGNTYYADSVTGRFTISRDNAKNTVYFQMNSLKPEDTAVYYCNTRWVHRDWYDYWGQGTQVTVSS", "polyreactivity (PSR sort gate)": "high polyreactivity"},
      {"sequence": "QVQLVESGGGLVQAGGSLRLSCAASGSILYLNAMGWYRQAPGKERELVATISNGGSTNYADSVKGRFTISRDNAKNTVYLQMNSLKPEDTAVYYCAAASGGTVVGEGDYWGQGTQVTVSS", "polyreactivity (PSR sort gate)": "low polyreactivity"},
      {"sequence": "QVQLVESGGGLVQAGGSLRLSCAASGSILYPNAMGWYRQAPGKERELVAAISTSGGSTYYADSVKGRFTLSRDNAKNTVYLQMNSLKPEDTAVYYCAKGWIYYSTWISEYWGQGTQVTVSS", "polyreactivity (PSR sort gate)": "low polyreactivity"},
      {"sequence": "QVQLVESGGGLVQAGGSLRLSCAASGSILYRYTMGWYRLAPGTERELVAAITKRGGRTYYADSVKGRITISRDNAMNTVYLQMNSLKPEDTAVFYCYALLTGGYQDSYPDDYWGQGTHVTVSS", "polyreactivity (PSR sort gate)": "high polyreactivity"},
      {"sequence": "QVQLVESGGGLVQAGGSLRLSCAASGSILYRYTMGWYRPAPGKERELVAAITKRGGRTYYADSVKGRFTISRDNAKNTVYLQMNSLKPEDTAVYYCAAKYYTGGSFEMYYGGQGTQVTVSS", "polyreactivity (PSR sort gate)": "high polyreactivity"},
      {"sequence": "QVQLVESGGGLVQAGGSLRLSCAASGSILYYYVMGWYRQAPGKERELVAAITSGGSTYYADSVKGRFTISRDNAKYTVYFQMIILKPEDTAVFYCAVGYVLTGVFQARFDYWGQGTQVNVSS", "polyreactivity (PSR sort gate)": "high polyreactivity"},
      {"sequence": "QVQLVESGGGLVQAGGSLRLSCAASGSIMGWYRQAPGKERELVAAISRGGSTYYADSVKGRFTISRDNAKNTVYLQMNSLKPEDTAVYYCAAKTGGSRSRFEYWGQGTQVTVSS", "polyreactivity (PSR sort gate)": "high polyreactivity"},
      {"sequence": "QVQLVESGGGLVQAGGSLRLSCAASGSIRSYAMGWYRQAPGKERELVAAITRSGGSTYYADSVKGRFTISRDNAKITVYLQMNSLKPEDTAFYYCAARYTYSYPLFGSWGQGTQVTVSS", "polyreactivity (PSR sort gate)": "high polyreactivity"},
      {"sequence": "QVQLVESGGGLVQAGGSLRLSCAASGSIRSYAMGWYRQAPGKERELVAAITRSGGSTYYADSVKGRFTISRDNAMNTVYLQMNSLKPEDTAVYYCAARYTYSYPLFGSWGQGTQVTVSS", "polyreactivity (PSR sort gate)": "high polyreactivity"},
      {"sequence": "QVQLVESGGGLVQAGGSLRLSCAASGSIRYYAMGWYRPAPGKERELVAGITRNGGSTYYADSVKGRFTISRDNAKNTVYLQMNSLKPEDTAVYYCAAGFTTRRGEYNYWGQGTQVTVSS", "polyreactivity (PSR sort gate)": "high polyreactivity"}
    ]}
  ]
}
